# Key:
# [1] = target: the molecule itself; assay: non-reducing SDS-PAGE with immunoblot (disulfide-linked oligomers); ALAD oxidised with diamide, dialysed, then 1 uM ALAD incubated 30 min with diamide, DTT (0.1-10 mM) or 0.1 mM DTT with TRX-f1/TRX-m1 (6.7 uM) or BSA (2 uM); free Cys blocked with NEM; non-reducing 10% SDS-PAGE; anti-His blot
# [2] = target: the molecule itself; assay: non-reducing SDS-PAGE with immunoblot (disulfide-linked oligomers); recombinant ALAD preincubated 15 min at RT with 1 mM diamide (oxidising) or untreated; non-reducing 12% SDS-PAGE; anti-His blot
protein,measurement,setting,value
"recombinant 6xHis-ALAD (Arabidopsis thaliana 5-aminolevulinic acid dehydratase 1, mature, wild type) (enzyme, UniProt Q9SFH9 53-430, looked up, ALAD1 (HEMB1, AT1G69740), Arabidopsis thaliana, cloned without the transit peptide (aa 1-52, ChloroP); mature ALAD1 is Ala53 to Arg430 of the 430-residue precursor; pET28a(+); also called ALAD1; ALAD(WT); source: E. coli Rosetta (DE3), purified (Ni-NTA agarose); not shown: His6, N-terminal, kept) ASESGNGHAKKLGMSDAECEAAVAAGNVPEAPPVPPKPAAPVGTPIIKPLNLSRRPRRNRASPVTRAAFQETDISPANFVYPLFIHEGEEDTPIGAMPGCYRLGWRHGLVQEVAKARAVGVNSIVLFPKVPEALKNSTGDEAYNDNGLVPRTIRLLKDKYPDLIIYTDVALDPYSSDGHDGIVREDGVIMNDETVHQLCKQAVSQARAGADVVSPSDMMDGRVGAIRSALDAEGFQNVSIMSYTAKYASSFYGPFREALDSNPRFGDKKTYQMNPANYREALIEAREDEAEGADILLVKPGLPYLDIIRLLRDKSPLPIAAYQVSGEYSMIKAGGVLKMIDEEKVMMESLMCLRRAGADIILTYFALQAATCLCGEKR",binding result,[1],binds
"recombinant 6xHis-ALAD(C424S/C426S) (enzyme, Arabidopsis thaliana, UniProt Q9SFH9 53-430, looked up, ALAD1 (HEMB1, AT1G69740), Arabidopsis thaliana, mature form without the transit peptide (aa 1-52), Ala53 to Arg430; made by site-directed mutagenesis of pET28a(ALAD); also called ALAD(C424/C426); source: E. coli Rosetta (DE3), purified (Ni-NTA agarose); not shown: His6, N-terminal, kept) ASESGNGHAKKLGMSDAECEAAVAAGNVPEAPPVPPKPAAPVGTPIIKPLNLSRRPRRNRASPVTRAAFQETDISPANFVYPLFIHEGEEDTPIGAMPGCYRLGWRHGLVQEVAKARAVGVNSIVLFPKVPEALKNSTGDEAYNDNGLVPRTIRLLKDKYPDLIIYTDVALDPYSSDGHDGIVREDGVIMNDETVHQLCKQAVSQARAGADVVSPSDMMDGRVGAIRSALDAEGFQNVSIMSYTAKYASSFYGPFREALDSNPRFGDKKTYQMNPANYREALIEAREDEAEGADILLVKPGLPYLDIIRLLRDKSPLPIAAYQVSGEYSMIKAGGVLKMIDEEKVMMESLMCLRRAGADIILTYFALQAATSLSGEKR",binding result,[2],binds

# From article PMC10839789, “More indications for redox-sensitive cysteine residues of the Arabidopsis 5-aminolevulinate dehydratase” (Frontiers in Plant Science, 2023)
